Experimental data from patent US20230407373A1 (priority 2020, published 2023).

B1: EIF2A (protein, UniProt Q9BY44 1-585, looked up)
Eukaryotic translation …: MAPSTPLLTVRGSEGLYMVNGPPHFTESTVFPRESGKNCKVCIFSKDGTLFAWGNGEKVNIISVTNKGLLHSFDLLKAVCLEFSPKNTVLATWQPYTTSKDGTAGIPNLQLYDVKTGTCLKSFIQKKMQNWCPSWSEDETLCARNVNNEVHFFENNNFNTIANKLHLQKINDFVLSPGPQPYKVAVYVPGSKGAPSFVRLYQYPNFAGPHAALANKSFFKADKVTMLWNKKATAVLVIASTDVDKTGASYYGEQTLHYIATNGESAVVQLPKNGPIYDVVWNSSSTEFCAVYGFMPAKATIFNLKCDPVFDFGTGPRNAAYYSPHGHILVLAGFGNLRGQMEVWDVKNYKLISKPVASDSTYFAWCPDGEHILTATCAPRLRVNNGYKIWHYTGSILHKYDVPSNAELWQVSWQPFLDGIFPAKTITYQAVPSEVPNEEPKVATAYRPPALRNKPITNSKLHEEEPPQNMKPQSGNDKPLSKTALKNQRKHEAKKAAKQEARSDKSPDLAPTPAPQSTPRNTVSQSISGDPEIDKKIKNLKKKLKAIEQLKEQAATGKQLEKNQLEKIQKETALLQELEDLELGI
B2: C8orf33 (protein, UniProt Q9H7E9 2-229, looked up)
UPF0488 protein C8orf33: AALGHLAGEAAAAPGPGTPCASRGARLPGPVSSARNPSTVCLCPEQPTCSNADSRAHPLGDEGGTASKKQKNKKKTRNRASVANGGEKASEKLAPEEVPLSAEAQAQQLAQELAWCVEQLELGLKRQKPTPKQKEQAIGAIRTLRSKRTPLPRKRQLMHSLFGDYRAQMEAEWREALRALRAAAYSAQVQPVDGATRKKSQRVCRPRSIWRAKATLDMPDEEFRFNFF
B3: TFB1M (protein, UniProt Q8WVM0 28-346, looked up)
Dimethyladenosine transferase …: QAAKQLSQNFLLDLRLTDKIVRKAGNLTNAYVYEVGPGPGGITRSILNADVAELLVVEKDTRFIPGLQMLSDAAPGKLRIVHGDVLTFKVEKAFSESLKRPWEDDPPNVHIIGNLPFSVSTPLIIKWLENISCRDGPFVYGRTQMTLTFQKEVAERLAANTGSKQRSRLSVMAQYLCNVRHIFTIPGQAFVPKPEVDVGVVHFTPLIQPKIEQPFKLVEKVVQNVFQFRRKYCHRGLRMLFPEAQRLESTGRLLELADIDPTLRPRQLSISHFKSLCDVYRKMCDEDPQLFAYNFREELKRRKSKNEEKEEDDAENYRL
B4: GNL3 (protein, UniProt Q9BVP2 1-549, looked up)
Guanine nucleotide-binding …: MKRPKLKKASKRMTCHKRYKIQKKVREHHRKLRKEAKKRGHKKPRKDPGVPNSAPFKEALLREAELRKQRLEELKQQQKLDRQKELEKKRKLETNPDIKPSNVEPMEKEFGLCKTENKAKSGKQNSKKLYCQELKKVIEASDVVLEVLDARDPLGCRCPQVEEAIVQSGQKKLVLILNKSDLVPKENLESWLNYLKKELPTVVFRASTKPKDKGKITKRVKAKKNAAPFRSEVCFGKEGLWKLLGGFQETCSKAIRVGVIGFPNVGKSSIINSLKQEQMCNVGVSMGLTRSMQVVPLDKQITIIDSPSFIVSPLNSSSALALRSPASIEVVKPMEAASAILSQADARQVVLKYTVPGYRNSLEFFTVLAQRRGMHQKGGIPNVEGAAKLLWSEWTGASLAYYCHPPTSWTPPPYFNESIVVDMKSGFNLEELEKNNAQSIRAIKGPHLANSILFQSSGLTNGIIEEKDIHEELPKRKERKQEEREDDKDSDQETVDEEVDENSSGMFAAEETGEALSEETTAGEQSTRSFILDKIIEEDDAYDFSTDYV

Tested on: HCoV-OC43 gRNA and sgRNA
Assay type: binding
Settings: for target (unweighted spectral count, OC43 Probe II capture): 36 hpi, type n_36_v, tested against no-probe control, FDR<10%

| Molecule | target (unweighted spectral count, OC43 Probe II capture) | target (unweighted spectral count, OC43 Probe II) (type n_48_v, 48 hpi, OC43 Probe II capture on infected cells) | background (unweighted spectral count, no-probe control) (type n_48_v, 48 hpi, no-probe control on infected cells) |
| --- | --- | --- | --- |
| B1 | 4 | 5 | 1 |
| B2 | 4 |  |  |
| B3 | 4 |  |  |
| B4 | 4 |  |  |
